{
  "source": "ChEMBL document CHEMBL2073795",
  "about": "“Secretory mechanisms of grepafloxacin and levofloxacin in the human intestinal cell line caco-2” (J Pharmacol Exp Ther, 2000)",
  "tested_on": "Cc1c(F)c(N2CCNC(C)C2)cc2c1c(=O)c(C(=O)O)cn2C1CC1",
  "test": "TP_TRANSPORTER: transepithelial transport (basal to apical) in Caco-2 cells",
  "assay_type": "functional, cell-based",
  "data": [
    {"substance": "ATP-dependent translocase ABCB1 (Homo sapiens)", "values": [
      {"measurement": "Km", "value": 580, "unit": "µM"}
    ]}
  ]
}
